Literature values, collected in patent US9932367B2, “Modification of polypeptides” (BicycleRD Limited, priority 2013, dated 2018).
Starred links: 1 amine or outer side, 2 acyl side, 3 side chain; linkers in the order of their positions; H or OH if unused. Positions of bridges follow the written chain, without caps; N, C: chain ends. TBMB = c1c(C[*:1])cc(C[*:3])cc1C[*:2]

Tests used:
human PK (hPK) = human PK (hPK) (Homo sapiens, UniProt P03952)
rat PK = rat PK (Rattus norvegicus, UniProt P14272); settings: highest concentration tested (10 μM)
rat PK, sequence (P14272 20-638): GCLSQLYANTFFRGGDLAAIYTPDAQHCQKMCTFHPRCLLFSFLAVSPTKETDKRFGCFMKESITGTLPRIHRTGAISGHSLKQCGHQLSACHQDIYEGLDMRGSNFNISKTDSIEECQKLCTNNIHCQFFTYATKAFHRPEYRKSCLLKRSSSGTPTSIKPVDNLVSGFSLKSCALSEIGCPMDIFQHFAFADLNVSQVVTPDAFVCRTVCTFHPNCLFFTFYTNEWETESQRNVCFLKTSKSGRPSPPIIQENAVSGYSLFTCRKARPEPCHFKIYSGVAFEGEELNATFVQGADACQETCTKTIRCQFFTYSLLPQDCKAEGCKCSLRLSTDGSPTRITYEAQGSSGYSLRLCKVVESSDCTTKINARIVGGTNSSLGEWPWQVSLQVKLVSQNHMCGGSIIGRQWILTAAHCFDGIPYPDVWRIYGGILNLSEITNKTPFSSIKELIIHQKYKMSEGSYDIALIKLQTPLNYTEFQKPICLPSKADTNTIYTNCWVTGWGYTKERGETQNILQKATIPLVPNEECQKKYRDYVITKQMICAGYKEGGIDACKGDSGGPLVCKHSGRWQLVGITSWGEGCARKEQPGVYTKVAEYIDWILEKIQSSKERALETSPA

factor XIa (hfXIa) = factor XIa (hfXIa) (Homo sapiens, UniProt P03951); settings: highest concentration tested (10 μM)
factor XIa (hfXIa), sequence (P03951 388-625 limits assumed): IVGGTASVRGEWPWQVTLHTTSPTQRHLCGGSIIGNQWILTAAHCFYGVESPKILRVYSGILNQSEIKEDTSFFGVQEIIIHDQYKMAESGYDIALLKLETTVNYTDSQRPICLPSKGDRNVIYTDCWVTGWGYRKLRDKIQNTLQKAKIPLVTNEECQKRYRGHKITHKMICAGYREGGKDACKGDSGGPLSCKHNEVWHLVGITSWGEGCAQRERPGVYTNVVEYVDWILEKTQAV
factor XIa (hfXIa), sequence (P03951 19-387 partner limits assumed): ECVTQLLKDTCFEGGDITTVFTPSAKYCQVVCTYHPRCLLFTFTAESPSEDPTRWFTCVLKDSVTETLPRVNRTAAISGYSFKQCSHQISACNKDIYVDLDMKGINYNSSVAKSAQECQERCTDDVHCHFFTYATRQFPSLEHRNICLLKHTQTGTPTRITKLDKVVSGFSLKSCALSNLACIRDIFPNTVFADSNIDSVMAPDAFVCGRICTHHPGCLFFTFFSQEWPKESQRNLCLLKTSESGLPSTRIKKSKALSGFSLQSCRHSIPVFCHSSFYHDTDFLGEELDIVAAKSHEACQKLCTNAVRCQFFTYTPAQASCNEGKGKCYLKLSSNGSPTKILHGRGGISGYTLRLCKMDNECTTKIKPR

thrombin = thrombin (Homo sapiens, UniProt P00734); settings: highest concentration tested (10 μM)

human PK (hPK), sequence (P03952 391-638 limits assumed): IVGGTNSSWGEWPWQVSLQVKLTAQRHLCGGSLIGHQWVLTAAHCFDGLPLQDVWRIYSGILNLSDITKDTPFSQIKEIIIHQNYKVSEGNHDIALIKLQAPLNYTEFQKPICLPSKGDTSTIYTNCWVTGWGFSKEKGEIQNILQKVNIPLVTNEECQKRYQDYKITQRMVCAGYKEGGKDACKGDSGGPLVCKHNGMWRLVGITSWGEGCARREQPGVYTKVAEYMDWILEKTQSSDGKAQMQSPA
human PK (hPK), sequence (P03952 20-390 partner limits assumed): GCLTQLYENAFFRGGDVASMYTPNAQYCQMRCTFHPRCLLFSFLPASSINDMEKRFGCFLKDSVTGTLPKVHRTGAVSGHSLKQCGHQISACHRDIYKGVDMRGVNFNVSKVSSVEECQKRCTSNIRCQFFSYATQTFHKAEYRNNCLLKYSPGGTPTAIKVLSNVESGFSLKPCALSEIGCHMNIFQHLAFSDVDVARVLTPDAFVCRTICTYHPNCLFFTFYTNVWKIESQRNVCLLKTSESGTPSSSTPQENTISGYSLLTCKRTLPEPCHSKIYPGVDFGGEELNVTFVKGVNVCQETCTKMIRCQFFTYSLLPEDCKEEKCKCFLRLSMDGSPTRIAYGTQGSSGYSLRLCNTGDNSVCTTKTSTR

- Ki (human PK (hPK)): 3 nM
- inhibition of rat PK (rat PK): did not inhibit
- inhibition of human factor XIa (factor XIa (hfXIa)): did not inhibit
- inhibition of thrombin (thrombin): did not inhibit
Substance: three cysteines containing peptide (H-ACSDRFRNCPADEALCG-NH2) (SEQ ID NO: 18) coupled with TBMB; inhibitor of human plasma kallikrein (linker 2-9-16 via TBMB) [PK15]
